Measured values reported in PMC7286605.
pEC50, pKd: −log10 of the molar value. Values joined by “and” are separate entries in the source; they are usually repeats but may differ in a detail not shown here. Identical values can stand only once.

Columns and labels:
[1] = target: water-soluble variant of the μ-opioid receptor (wsMOR) (UniProt P35372); assay: MoS2 field-effect transistor biosensor
[2] = target: water-soluble variant of the μ-opioid receptor (wsMOR) (UniProt P35372); assay: photonic crystal Fano resonance shift

pEC50 [1]: 8.92 and 8.82
pKd [1]: 8.44
pEC50 [2]: 9.00 and 8.92
pKd [2]: 8.60
Substance: DAMGO ([D-Ala2, N-MePhe4, Gly-ol]-enkephalin) (peptide)
